From patent US20220016205A1, “METHODS OF OVERCOMING RESISTANCE TO IMMUNE CHECKPOINT INHIBITORS” (Board of Regents, The University of Texas System, priority 2018, published 2022) come the findings set out here.

One experiment relates to 344SQR tumors. Description: Tumor growth and survival of mice with anti-PD1-resistant 344SQR tumors treated with follistatin, anti-PD1 or both. It is filed as in vivo, 129Sv/Ev mice. As to conditions: follistatin 0.1 mg/kg i.p. (with or without anti-PD1 10 mg/kg), 2 weeks. On the procedure: In vivo studies. All mouse studies were approved by the Institutional Animal Care and Use Committee (IACUC) of The University of Texas MD Anderson Cancer Center before their initiation; animal care was provided according to IACUC standards, and all mice had been bred and were maintained in our own specific pathogen-free mouse colony. For RRBS, RPPA and TILs studies, primary tumors were established by subcutaneous injection of 344SQP or 344SQR cells (0.5×10^6 in 100 μL of sterile phosphate buffered saline [PBS]) into the leg of syngeneic 129Sv/Ev mice (female, 12-16 weeks old). Mice were then given intraperitoneal injections of anti-PD1 or control IgG antibodies (10 mg/kg) (Bio X cell), starting on day 4 after tumor cell inoculation and continuing twice per week for a total of 4 doses. At 24 hours after the last anti-PD1 treatment, tumor tissues were collected for DNA (2 mice/group) and protein isolation (2 or 3 mice/group). For TILs isolation, tumor tissues (3 mice/group) were collected a week after the last treatment with anti-PD1. […] Tumors were measured with calipers three times per week and recorded as tumor volume (in mm^3)=width^2×length/2. […] Mouse survival rates were analyzed by using the Kaplan-Meier method and compared with log-rank tests.

The test system of another experiment is RAW 264.7 cells. Kind of experiment: Immunofluorescence of p38a and SMAD1/5/9 phosphorylation in RAW 264.7 cells treated with BMP7 or BMP7 plus follistatin. Conditions: 24 hours (FIG. 2K). It counts as cell-based, murine. As to the method: Immunofluorescence analysis. RAW 264.7 cells were counted with a hemocytometer (0.4% Trypan blue solution), diluted to 200,000, and seeded in 4-well culture slides (Lab-Tek, Catalog #154917), and allowed to attach overnight. Cells were treated with 250 ng BMP7 (R&D Systems, Catalog #5666-BP-010) or follistatin (R&D Systems, Catalog #769-FS-025) and incubated for 24 h, and then fixed with 1% paraformaldehyde for 10 minutes, followed by a 10-minute wash in 70% ethanol at room temperature. Cells were then treated with 0.1% NP40 in PBS for 20 minutes, washed in PBS four times, and then blocked with 5% bovine serum albumin in PBS for 30 minutes. Cells were then incubated with p38a MAPK (L53F8) (Cell Signaling, Catalog #9228) and Phospho-Smad1 (Ser463/465), Smad5 (Ser463/465), and Smad9 (Ser465/467) (D5B10) (Cell Signaling, Catalog #13820) in 5% bovine serum albumin in PBS overnight according to the manufacturer's protocol. […] Slides were examined with a fluorescence microscope (Leica, Buffalo Grove, Ill.), and images were captured by a charge-coupled device camera and imported into the Advanced Spot Image analysis software package.

B1: follistatin: BMP7 antagonist protein, natural inhibitor of BMP7 (R&D Systems, Catalog #769-FS-025) (protein, UniProt P19883 30-344, looked up)
Follistatin: GNCWLRQAKNGRCQVLYKTELSKEECCSTGRLSTSWTEEDVNDNTLFKWMIFNGGAPNCIPCKETCENVDCGPGKKCRMNKKNKPRCVCAPDCSNITWKGPVCGLDGKTYRNECALLKARCKEQPELEVQYQGRCKKTCRDVFCPGSSTCVVDQTNNAYCVTCNRICPEPASSEQYLCGNDGVTYSSACHLRKATCLLGRSIGLAYEGKCIKAKSCEDIQCTGGKKCLWDFKVGRGRCSLCDELCPDSKSDEPVCASDNATYASECAMKEAACSSGVLLEVKHSGSCNSISEDTEEEEEDEDQDYSFPISSILEW
With B1, the tumor growth entry in the experiment with 344SQR tumors (compared with anti-PD1 therapy only (FIG. 5C)) is listed as “decreased tumor growth”. For the same molecule, the survival result with 344SQR tumors (compared with anti-PD1 therapy only, Kaplan-Meier (FIG. 5C)) is reported as “extended survival”. Also, the p38a expression result in the experiment with RAW 264.7 cells (BMP7 plus follistatin compared with BMP7 alone) is reported as “higher”. Moreover, the SMAD1/5/9 activation result in the experiment on RAW 264.7 cells (BMP7 plus follistatin versus BMP7 alone) is listed as “lower”.
